Measured values: PMC7730851, “Expression of Somatostatin Receptor Subtypes (SSTR-1–SSTR-5) in Pediatric Hematological and Oncological Disorders” (Molecules, 2020)

System: somatostatin receptors (SSTR)
Assay: Displacement of [125I]RC-160 binding from membranes of human pediatric tumors by unlabeled peptides
Procedure: Receptor binding affinities and concentrations of SSTRs in tumor membranes were also studied. […] Biochemical specifications and parameters crucial to characterize specific binding sites were also defined. […] Various peptides structurally related or unrelated to SST were used in these studies.
Displacement of [^125I] RC-160 as a radioligand by the unlabeled SST analogs as competitor was determined.
The radioiodinated derivatives of the RC-160 SST analogue were prepared by the chloramine-T method and purified by reverse phase high-performance liquid chromatography (RP-HPLC) as described previously. Somatostatin receptor-binding assays were performed as described previously with some minor modifications, using in vitro ligand competition assays based on the binding of [^125I] RC-160 as a radioligand to membrane fractions of the pediatric samples. This radioiodinated ligand has been well characterized and reported previously and has high affinity for SSTR-2 and SSTR-5 [4]. […] After incubation for 2 h, the binding reactions were stopped, and the bound ligand was separated and counted in a gamma counter. […] The final binding affinities were expressed as IC50 values. Protein concentration was determined by the method of Bradford using a Bio-Rad protein assay kit (Bio-Rad Laboratories, Inc.).

B1: epidermal growth factor (EGF): unrelated peptide used as specificity control (protein, UniProt P01133 23-1207, looked up)
Pro-epidermal growth factor: PQHWSCPEGTLAGNGNSTCVGPAPFLIFSHGNSIFRIDTEGTNYEQLVVDAGVSVIMDFHYNEKRIYWVDLERQLLQRVFLNGSRQERVCNIEKNVSGMAINWINEEVIWSNQQEGIITVTDMKGNNSHILLSALKYPANVAVDPVERFIFWSSEVAGSLYRADLDGVGVKALLETSEKITAVSLDVLDKRLFWIQYNREGSNSLICSCDYDGGSVHISKHPTQHNLFAMSLFGDRIFYSTWKMKTIWIANKHTGKDMVRINLHSSFVPLGELKVVHPLAQPKAEDDTWEPEQKLCKLRKGNCSSTVCGQDLQSHLCMCAEGYALSRDRKYCEDVNECAFWNHGCTLGCKNTPGSYYCTCPVGFVLLPDGKRCHQLVSCPRNVSECSHDCVLTSEGPLCFCPEGSVLERDGKTCSGCSSPDNGGCSQLCVPLSPVSWECDCFPGYDLQLDEKSCAASGPQPFLLFANSQDIRHMHFDGTDYGTLLSQQMGMVYALDHDPVENKIYFAHTALKWIERANMDGSQRERLIEEGVDVPEGLAVDWIGRRFYWTDRGKSLIGRSDLNGKRSKIITKENISQPRGIAVHPMAKRLFWTDTGINPRIESSSLQGLGRLVIASSDLIWPSGITIDFLTDKLYWCDAKQSVIEMANLDGSKRRRLTQNDVGHPFAVAVFEDYVWFSDWAMPSVMRVNKRTGKDRVRLQGSMLKPSSLVVVHPLAKPGADPCLYQNGGCEHICKKRLGTAWCSCREGFMKASDGKTCLALDGHQLLAGGEVDLKNQVTPLDILSKTRVSEDNITESQHMLVAEIMVSDQDDCAPVGCSMYARCISEGEDATCQCLKGFAGDGKLCSDIDECEMGVPVCPPASSKCINTEGGYVCRCSEGYQGDGIHCLDIDECQLGEHSCGENASCTNTEGGYTCMCAGRLSEPGLICPDSTPPPHLREDDHHYSVRNSDSECPLSHDGYCLHDGVCMYIEALDKYACNCVVGYIGERCQYRDLKWWELRHAGHGQQQKVIVVAVCVVVLVMLLLLSLWGAHYYRTQKLLSKNPKNPYEESSRDVRSRRPADTEDGMSSCPQPWFVVIKEHQDLKNGGQPVAGEDGQAADGSMQPTSWRQEPQLCGMGTEQGCWIPVSSDKGSCPQVMERSFHMPSYGTQTLEGGVEKPHSLLSANPLWQQRALDPPHQMELTQ
modifications: Pro-epidermal growth factor
notes: unrelated peptide used as specificity control
- displacement of [125I]RC-160 binding (membrane fractions of human rhabdomyosarcoma specimen, Figure 3): did not displace
- inhibition/displacement of the binding of radioiodinated RC-160 (pediatric tumor membranes, competitor 10^-12-10^-6 M, concentrations as high as 1 µM): none
